From paper doi:10.1101/2024.06.27.601040 (bioRxiv, 2024)

Target: MVP3-5 (residues 102-274 of human MVP), wild type (human, UniProt Q14764 102-274)
Test: SEC

MVP3-5 (residues 102-274 of human MVP), wild type, sequence (Q14764 102-274): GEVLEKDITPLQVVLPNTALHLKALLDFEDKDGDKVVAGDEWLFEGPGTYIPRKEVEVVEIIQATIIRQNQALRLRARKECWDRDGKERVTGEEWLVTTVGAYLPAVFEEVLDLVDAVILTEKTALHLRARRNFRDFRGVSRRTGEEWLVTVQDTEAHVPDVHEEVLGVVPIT

B1: MINT domain (residues 1562-1724 of human PARP4), wild type (domain or fragment)
chain: VCIQHWQDAVPWTELLSLQTEDGFWKLTPELGLILNLNTNGLHSFLKQKGIQSLGVKGRECLLDLIATMLVLQFIRTRLEKEGIVFKSLMKMDDASISRNIPWAFEAIKQASEWVRRTEGQYPSICPRLELGNDWDSATKQLLGLQPISTVSPLHRVLHYSQG
B1: binds.
